Data taken from paper PMC4872093, “Structural insights into DNA sequence recognition by Type ISP restriction-modification enzymes”.

How the values were obtained:
[1] = biological target: LlaGI full-length (crystal) (UniProt Q93R01 1-1570, D78A); assay: X-ray crystallography, 7.4 A; EMSA: 50 mM Tris-HCl pH 7.4, 100 mM NaCl, 10 mM MgCl2, 0.01 mg/ml BSA, 1 mM DTT, 10% glycerol, 4 C. Crystals at 291 K: LlaGIΔN 100 mM Tris-HCl pH 7.4, 20% PEG 20000, 4% PEG 550 MME, 150-250 mM Na acetate; LlaGI 100 mM MES pH 5.6, 300 mM KCl, 6.5% PEG 20000; conditions: protein: recombinant; blunt
LlaGIΔN = biological target: T1, LlaGIΔN (UniProt Q93R01 1-1+166-1570, internal_change); assay: X-ray crystallography, 2.84 A; no AdoMet; target adenine flipped; EMSA: 50 mM Tris-HCl pH 7.4, 100 mM NaCl, 10 mM MgCl2, 0.01 mg/ml BSA, 1 mM DTT, 10% glycerol, 4 C. Crystals at 291 K: LlaGIΔN 100 mM Tris-HCl pH 7.4, 20% PEG 20000, 4% PEG 550 MME, 150-250 mM Na acetate; LlaGI 100 mM MES pH 5.6, 300 mM KCl, 6.5% PEG 20000; conditions: protein: recombinant; 5' overhang 1 nt (T) on both strands, 22 bp paired
T1 sequence: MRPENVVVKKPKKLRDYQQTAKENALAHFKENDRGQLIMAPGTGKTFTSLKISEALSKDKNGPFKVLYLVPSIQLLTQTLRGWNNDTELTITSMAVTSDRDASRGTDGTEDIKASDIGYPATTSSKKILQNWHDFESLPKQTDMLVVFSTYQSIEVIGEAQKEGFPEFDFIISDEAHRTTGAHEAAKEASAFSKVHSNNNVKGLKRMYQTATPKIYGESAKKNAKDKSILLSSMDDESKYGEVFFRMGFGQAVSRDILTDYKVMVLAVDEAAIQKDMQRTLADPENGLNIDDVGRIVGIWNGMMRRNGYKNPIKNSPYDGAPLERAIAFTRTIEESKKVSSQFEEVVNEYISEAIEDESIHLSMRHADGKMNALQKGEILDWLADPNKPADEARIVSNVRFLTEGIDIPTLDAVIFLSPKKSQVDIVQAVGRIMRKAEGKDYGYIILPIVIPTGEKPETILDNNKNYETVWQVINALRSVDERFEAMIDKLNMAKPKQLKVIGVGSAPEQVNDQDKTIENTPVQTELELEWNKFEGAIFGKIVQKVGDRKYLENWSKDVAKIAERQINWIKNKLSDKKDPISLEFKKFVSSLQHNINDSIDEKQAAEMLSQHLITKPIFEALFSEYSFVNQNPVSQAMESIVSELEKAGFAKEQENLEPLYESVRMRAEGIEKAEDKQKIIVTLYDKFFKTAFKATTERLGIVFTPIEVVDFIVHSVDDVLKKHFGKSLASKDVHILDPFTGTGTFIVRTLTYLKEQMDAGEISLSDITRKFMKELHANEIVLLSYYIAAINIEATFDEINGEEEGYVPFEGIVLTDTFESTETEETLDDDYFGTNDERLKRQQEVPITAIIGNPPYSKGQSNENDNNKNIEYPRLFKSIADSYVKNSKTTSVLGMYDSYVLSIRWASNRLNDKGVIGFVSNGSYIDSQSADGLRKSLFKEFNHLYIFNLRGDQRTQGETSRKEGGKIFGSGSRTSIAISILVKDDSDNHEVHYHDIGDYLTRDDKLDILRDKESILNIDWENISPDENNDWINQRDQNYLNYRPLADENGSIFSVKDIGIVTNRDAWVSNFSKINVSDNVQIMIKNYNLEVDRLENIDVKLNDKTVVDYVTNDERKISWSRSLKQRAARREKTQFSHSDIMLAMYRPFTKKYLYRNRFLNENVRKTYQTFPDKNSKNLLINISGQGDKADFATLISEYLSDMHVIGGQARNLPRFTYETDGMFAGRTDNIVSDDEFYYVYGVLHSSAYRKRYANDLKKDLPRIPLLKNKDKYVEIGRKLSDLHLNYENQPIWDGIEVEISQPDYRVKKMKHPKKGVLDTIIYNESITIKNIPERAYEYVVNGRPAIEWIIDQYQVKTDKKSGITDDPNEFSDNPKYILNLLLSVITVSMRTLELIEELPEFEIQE

B1: LlaGI co-crystal duplex (28 bp) (dsDNA)
DNA 1: GCTCTAGCTAATAGACTGGATGGAGGTG
DNA 2: CACCTCCATCCAGTCTATTAGCTAGAGC
B1: binds [1].

B2: LlaGIΔN co-crystal duplex (22 bp) (dsDNA)
DNA 1: TTAGCTAATAGACTGGATGGAGG
DNA 2: TCCTCCATCCAGTCTATTAGCTA
B2: binds (LlaGIΔN).
